The values below come from article PMC4974639, “Crystal structures of APOBEC3G N-domain alone and its complex with DNA”.

For data set [1], the target named is T1, rA3G-CD1 (loop-8 mutant) (Macaca mulatta (rhesus macaque), UniProt M1GSK9 1-138+=AEAG+147-196, internal_change). Description: EMSA; ITC: 100 mM NaCl, 50 mM HEPES pH 7.5, 25 C; EMSA: 60 mM HEPES pH 7.5, 100 mM NaCl, on ice 10 min, native PAGE. Particulars: protein: recombinant, tags: GST tag removed with PreScission (pGEX-6P-1), chain copies: 2.
The target of the next data set is rA3G-CD1 Y124A (Macaca mulatta (rhesus macaque), UniProt M1GSK9 1-138+=AEAG+147-196, Y124A;internal_change). The data set can be described thus: ITC; ITC: 100 mM NaCl, 50 mM HEPES pH 7.5, 25 C; EMSA: 60 mM HEPES pH 7.5, 100 mM NaCl, on ice 10 min, native PAGE. Particulars: protein: recombinant; tags: GST tag removed with PreScission (pGEX-6P-1). Background: In ITC the heat of successive injections is recorded.

The target in a further data set is rA3G-CD1 FWKL mutant (Macaca mulatta (rhesus macaque), UniProt M1GSK9 1-138+=AEAG+147-196, F126Y;W127S;K180S;L184S;internal_change). Described as above. The settings on record: protein: recombinant; tags: GST tag removed with PreScission (pGEX-6P-1).
The target in data set [2] is T1, rA3G-CD1 (loop-8 mutant). The data set can be described thus: ITC; n=0.83; ITC: 100 mM NaCl, 50 mM HEPES pH 7.5, 25 C; EMSA: 60 mM HEPES pH 7.5, 100 mM NaCl, on ice 10 min, native PAGE. The settings on record: protein: recombinant; tags: GST tag removed with PreScission (pGEX-6P-1); chain copies: 2.
The target in data set [3] is T1, rA3G-CD1 (loop-8 mutant). Description: ITC; n=1.47; ITC: 100 mM NaCl, 50 mM HEPES pH 7.5, 25 C; EMSA: 60 mM HEPES pH 7.5, 100 mM NaCl, on ice 10 min, native PAGE. Particulars: protein: recombinant; tags: GST tag removed with PreScission (pGEX-6P-1); chain copies: 2.

T1 sequence (M1GSK9 entry or part of it | mutant): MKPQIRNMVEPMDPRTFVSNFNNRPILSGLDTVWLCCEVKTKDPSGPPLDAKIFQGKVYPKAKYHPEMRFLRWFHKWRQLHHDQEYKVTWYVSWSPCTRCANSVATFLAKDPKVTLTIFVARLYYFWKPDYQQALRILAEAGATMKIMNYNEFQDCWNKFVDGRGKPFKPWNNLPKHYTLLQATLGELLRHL
Chain of rA3G-CD1 Y124A (M1GSK9 entry or part of it Y124A/| Y124A Y124A): as the sequence (M1GSK9 entry or part of it | mutant) above, with Y124A counted along it
Chain of rA3G-CD1 FWKL mutant (M1GSK9 entry or part of it F126Y;W127S;K180S;L184S/| mutant): as the sequence (M1GSK9 entry or part of it | mutant) above, with F126Y, W127S, K176S, L180S counted along it

B1: 50 nt RNA (ssRNA)
RNA: AUUAUUAUUAUUUAUCCCUAUUUAUAUUUAUUGUUAUUGUUAUUGUUAUA
As for B1, the binding result with rA3G-CD1 (loop-8 mutant) [1] (label: 5'-FAM) was “binds”.

B2: 10 nt RNA (ssRNA)
RNA: UAUUCAUUAU
As to B2, the binding result with rA3G-CD1 Y124A and with rA3G-CD1 FWKL mutant was “no binding” in each case. Further, the Kd with rA3G-CD1 (loop-8 mutant) [2] came out at 1490 ± 180 nM.

B3: 10 nt poly-dT ssDNA (ssDNA)
DNA: TTTTTTTTTT
As to B3, the dissociation constant Kd in the data set with rA3G-CD1 (loop-8 mutant) [3] came to 1570 ± 310 nM. The binding result in the data set with rA3G-CD1 Y124A and in the data set with rA3G-CD1 FWKL mutant was “no binding” each time.

B4: 50 nt ssDNA (ssDNA)
DNA: ATTATTATTATTTATCCCTATTTATATTTATTGTTATTGTTATTGTTATA
Consider B4, for which the binding result with rA3G-CD1 (loop-8 mutant) [1] (label: 5'-FAM (EMSA)) is listed as “binds”.

By Kd is commonly meant the constant that tells how readily two partners part at equilibrium.
